Experiment: soluble on expression in E. coli; label from the status in PepcDB or PDB records

Soluble on expression in E. coli, not soluble:
MGSDKIHHHHHHMSGAKVISVMNWKGGVGKTTMTHHLGTGLHMLTKEERLEYLGSEKMPRILFVDNDAQCNLSISCLHVEKYEDLVYKQNIPTIYDLYKLFICNESPVVDMHNYIIKNQVRMDNRRIFMGMDLLPAHQELVYLDMNIAMNSRASFQSGLISKEIYKYQYLNDILEPVCSDYDYIFIDCPPNLGYTTLNALYASEYCLIPTGLDHLSSYGIASLLKEIDRLNTEFATAVPDHPMIEVVGIVANNVEENREAPKRSQKLIRERLQDSYHELMFEPYLTRGDGIPNASEQGYPVYADRSANALKQGDLLLGILREFLDRI, MGSDKIHHHHHHMSHGAIKHHRHRGRVMYHLRVPESAEDLDAYYQFRWEMLRKPLHQPLGSERDAYDALAHHQTVVDEQGRLVAIGRLSINADNEAAIRFLAVHPDLRGKGLGTLLAITLESVARQEGVKRVVCSAREDAMDFFSKLGFVNQGEISAPQTTPVRHFLMIKPVATLDDILHRADWCGQLQQAWYDHIPLSEKMGVRISQYTGKKFITTMPEAGNQNPHHTLFAGSMFSLATLTGWGLIWLLLRERHLGGTIILADAHIRYSTPVSGRPSAIADLGSLSGDLDRLARGRKARVQLNVELFGDDNKGALFEGVYIVLPAQPDAPLEEGGSEVD, MGSDKIHHHHHHMSHPEPYFQCNDPALSPAERANWIAVLPLGAHEQHGPHLPFETDTIIAQGVVDRLILALPDTLPVTFLPVEPVGYSVEHMDVFGTRTLTFNEAVERWLGIAETLSGQGIRKLMMLNAHGGNSPLMTVVATEARIRFSMLAVATSWTRFGQPDGLIRPEDKAIDIHGGDIETSVMLALRPDLVAMDKAQNFSSRQSEFAARFTHLRAYGPHAFGWKMADLNPLGVAGNASVATAEKGENLLSHAVHGLVELLWDIHDFDIEKAFELPPHSSYMG, MGSDKIHHHHHHMSHSTDLSALARWMAADFSNQAQAFENPPFYAHIRVAIRPLDQAKFGDRLLFLEQAYDFMLQRPYRLRVLKLKVVEDHIEIENFKVKDEEKFYGAARDLGKLAQLTPADLEPMHGCDMIVEWTGTSFKGEVQPGRQCRVMRDGKETYLENSFEVSETGLISLDRGYDPETNERVWGSVAGAFHFVRWQSFADEVSF, MGSDKIHHHHHHMSIAPFLEAAGWAEATATPLAGDASSRRYTRLSRGAETAVLMQAPVATKADHASFDAFRKIGAHLRGQNLSAPKEYAADPTNGLILMEDLGDQTLARLLKDDAQTAQIAYNATANLLPHLKVHAPPHLAAPDARAMAQMVALTFDQLPDSAILRDTLLEALAEALTTHAPGAPTLSLRDVHAENLLWLPDRDGPARVGLLDFQDALLLPEGYDLASLLDDPRREVPEVWRADLIAAHSAPTRIAVLSLQRNLRILGIFRRLSTTLGKPAYGAFLPRTRTLIARAASDLPPMLAPVTELLDRTAHWTAP, MGSDKIHHHHHHMSINSREVLAEKVKNAVNNQPVTDMHTHLFSPNFGEILLWDIDELLTYHYLVAEVMRWTDVSIEAFWAMSKREQADLIWEELFIKRSPVSEACRGVLTCLQGLGLDPATRDLQVYREYFAKKTSEEQVDTVLQLANVSDVVMTNDPFDDNERISWLEGKQPDSRFHAALRLDPLLNEYEQTKHRLRDWGYKVNDEWNEGSIQEVKRFLTDWIERMDPVYMAVSLPPTFSFPEESNRGRIIRDCLLPVAEKHNIPFAMMIGVKKRVHPALGDAGDFVGKASMDGVEHLLREYPNNKFLVTMLSRENQHELVVLARKFSNLMIFGCWWFMNNPEIINEMTRMRMEMLGTSFIPQHSDARVLEQLIYKWHHSKSIIAEVLIDKYDDILQAGWEVTEEEIKRDVADLFSRNFWRFVGRNDHVTSVKVEQQT, MGSDKIHHHHHHMSKEASFEIQLPLFAGPFDLLLFFIERDELDIYDIPISKITNDFLEYIHRLEKMNVDIASEFILVAATLMRIKAKTLLPRPDIDPQGNEIDPREELVSHLLEYKKYKSVIAEFSELEETSLKREKRGNIAKELKLLSEVSNVETELQDIDLYKLLKVFEKVIVRWKEEKTKPVHHVVQYPYSIELQKEYIINKVSRGQRISFTEIINDIPVKMAVIYNFLSILELLALQKIQLHLGEGFNNFWIAQYDGEHAAVNEYANDIE, MGSDKIHHHHHHMSKLFDCITDELQDFIAAQHLFFVGSAPLSPTGHVNLSPKGLGCFRVLSPKQVGYVDLTGSGNETSAHLQENGRITFMFCAFEEPACILRLYGQGNTILPSSPDWDSLYSLFLPMPGTRQIIVADIEKVQTSCGFGVPLYEYQGQRQTLVNWASKKGEEGVREYQQKKNLVSIDGLPTPLSKLS, MGSDKIHHHHHHMSLFHLIAPSGYCIKQHAALRGIQRLTDAGHQVNNVEVIARRCERFAGTETERLEDLNSLARLTTPNTIVLAVRGGYGASRLLADIDWQALVARQQHDPLLICGHSDFTAIQCGLLAHGNVITFSGPMLVANFGADELNAFTEHHFWLALRNETFTIEWQGEGPTCRAEGTLWGGNLAMLISLIGTPWMPKIENGILVLEDINEHPFRVERMLLQLYHAGILPRQKAIILGSFSGSTPNDYDAGYNLESVYAFLRSRLSIPLITGLDFGHEQRTVTLPLGAHAILNNTREGTQLTISGHPVLKM, MGSDKIHHHHHHMSLFNIFDVSGSGMAAQSIRLNTTASNIANADSVSSSVDKTYRARHPIFEAELNKAHDQQNGTKGVQVRAIVESDKPLLKEYSPSHPMADGDGFIYKPNVNVMEEMADMISASRSYQMNVQVADATKTMLQQTLRMGK, MGSDKIHHHHHHMSLNKNLNDIEKSQLIELMHESLRIRSHFELFLWMQGKLQVFLPHEIMITAWGDFSLGVIYFNIVSPLPGIRSDKIASHEINQFLQNLFNYWLNHAKAPFTLAAADNILHDCEFSNKESSYYLKNMKSALVHAIKDHRGRHDCLYVLLSSNLSFPPASRPMLEALLPYIDSALRQIEHLPEQQPTLIKAEPEPKDESLNILSGRELEIMDWVTKGKTNQEIGMILDISAFTVKNHLQRIFKKLNVMNRAQAVAKFRK, MGSDKIHHHHHHMSLPETPTIRIGMAMWSHPGWKTVFPGLDAEARLTAYSRVFGTVEGNTSFYALPSAQQVSIWQRATPEDFRFTFKLPRRITHELSLRNCREEVLQFFRLFEPLMAKTGVWKIQLPARFGPESLSVLTQFLSLLPEGIGLGVEVRHRAFFAKGEAEKDFNRLLMDKGINRIIMDTRPVFALPAINEAITDAHQKKPRVPVHPLATGAHPVVRFIAQPHTPAAWGPGGKPADLGCADNLAFFAPWLGKLAGWLAEGRSPYLFIHTPDNSDAPLLASELAKQVAAHLQALHPGLPIPSVMLDSAESDGGQIGLGLQ, MGSDKIHHHHHHMSLQFDHETLGQRVLFGSGEAAQNLAAEISRLDAKNVMVVAGDFELPMARQVAADIDVKVWHSNVVMHVPIETAEEARSVAKENDIDVVVCVGGGSTTGLAKAIAMTTALPIIAVPTTYAGSEATNVWGLTEAARKTTGVDNKVLPVTVIYDSALTMSLPVEMSVASGLNGLAHCIDSLWGPKADPINAAMAAEGIRALSAGLPKIVADAQDVDGRDEALYGAYLAAVSFASAGSGLHHKICHVLGGTFNLPHAQTHATVLPYVLAFNAPYAPQAEQRAAAAFGSATALEGLQQLRAQVGAPQRLSDYGFTAAGIPEAVEIILEKVPANNPRTVTEENLTALLTTALNGDDPATLN, MGSDKIHHHHHHMSMVQSAFPPRRNSVGVQVGSIRIGGGAPIVVQSMTNTDTEDEIATTVQVAQLARAGSELVRITVNTAEAARAVPGIRARLDDMGCQVPLIGDFHFNGHKLVTEYPGCARALAKYRINPGNVGHGKKRDEQFSILIEAACKYEKPVRIGVNWGSLDPELLARMMDENARSGDPRDASAVMYEALITSALQSAERAEEIGLGRDRIILSCKMSGVRDLITVYRALAARCDYALHLGLTEAGMGSKGIVASTAALSVLLLEGIGDTIRISLTPEPGGDRAREVVVAQEILQTTGLRAFVPLVAACPGCGRTTSTYFQELAESIQGYVREQMLVWREEYEGVENMTLAVMGCVVNGPGESKHANIGISLPGSGERPVAPVFVDGQKAVTLKGDNIAGEFRQIVDEYVQMKYPKKAVDAH, MGSDKIHHHHHHMSNEHQLLVGLLKKLKDDALILPTLPEVAMRVQEVVGRPDSSLKQVAEIIGQDAAISARIIKVANSALYSRGVPAENINSAVTRIGLTQIKSIATSVAMEQLFISTNEMVWEVMDEVWRTSIDVTAAACSLLQIYNKKHPGSGLNYDTLTLAGLVHNIGALPVLTEAEAHPEMFTTIEHLRSLVRKMQGPIGRAVLKSWDFAPEVMEVVERWADLPYLGDHVSYLDFIRAAAFYTGELRAGNELEQRLDVFVKRGLPVSPEDLGSDAFLDSYHSIKASYE, MGSDKIHHHHHHMSNENIVLARNTERAPKHHLAAQTVAFSHYNHLSAQLPIEPTSGQLVEGGIRAQATQCLKNIQAVVESINHVMSDIVRMTIFVKDMRDAAAVEEVYAAFFTHYYPAKTVVAVADLPLGASVQMEALVSNGEGTIPNAPQAGDLIKLTNQTVQAPIDALASQTVAFSHYNNLSAQLPIDPQTGRVVAGCVKTQTKQCLKNIKAILTSIDVPFDDIVKINIYLKDLSKLEAVNQVHAAFFPDSGIARTVNYMPARTVIAVADLPMGAAVQVEAVVSHGDGTPPQAIEDRHGLIIEANNTEHAPKCPFSTQTVAFSHYNHLSAQLPLDPKTNALVAGGIKEQTTQCLENIKAIIESVDHSLADLVKVNIFVKEIEELAAVDDVYQTYFPEGTPARRVIGVTDLPKGAQIQIEAIAGNAEGTPPIG, MGSDKIHHHHHHMSNNSKISWTTTTWNVTAGCDPISDGCKNCYARMMAERLKAMGQAKYQNGFIPTIHSECLNEPFGWKGNKLVFVVSMGDLFHKDIPFDFIDKVIEVITKCPQHTFQILTKRAERMYEYFSTHAIPENVWLGVTVENQKVKGRIDYLKKLDAPVRFLSCEPLLEDLGTLDLSDIDWVIVGGESGNRARKVEKDWILNIKSQCDASTSTAFFFKQWGTWGADGVKRSAKENGCLLDGKEYHAYPTPRKIKP, MGSDKIHHHHHHMSNRHDADTPARLSSGIDGIDDILGGGLTPHRMYLVEGAPGTGKTTLALQFLLKGVEEGQGGLYITLSETRPELIAVAESHGWDISRFTILELLSDEGLDPQYEQTVLHPAEVELGETVRNVIQHVDELKPARIVLDSLSELRLLSQNPLRYRRQILALKRYFATRECTVLLLDDNSSDPGDVQLHSIAHGVISLDNLVHDYGGNRRRARVAKMRGIKFREGYHDFTLDTGGIHVYPRLVAAEHHADFSTEVVSTGTAGLDALLGGGLIPGTNALMIGPSGVGKTTTVVSCLIAALERGERCVYYVFDETLTTLMTRCATLGIYLAPHVESGLLTLRQIDPAEISPGEFASDVRRSVEKKGVRYVAIDSLNAYLQAMPGERYLLLQMHELLGYLNQQGIVTMLVLGQHGIIGEVQNDIDISYLSDVVVLFRYFEHHGEVLTAITAVKSRANAHERSIRQFRLGVNGVEVGDALRDFEGVLSGLPAYRGSTALLGATNRVIETPGK, MGSDKIHHHHHHMSNTLLFRPNEARALSALFRTGGLTRASLARELDLTRSTTGTLVQNLVDAGLARERESTTGNEAEPKVGRPGIVVEIAGSGVFFLGAYIGVNRIDVIAIDLSGTVRAKATRPFSGAASRPAQAMELIVALVDEVRRTLPPGARPHGLNVALPGFLDGDGETFHAAILGWHGVSLAQPISESIDLDVPVLLENDANAVAVAETYRSAPPDGKGDDSLVVLIENGVGGGIVSNGKLHRGQLGGAGEIGHMPIGEAGFVYDAVRPGRWETFIGKDALLARYAHISGVIGSLDAFIAVLASGDPTALACARDWARWLVRGLATLACVLQPGRIILAGSVSAIYPFVAEQTEALLAASLIEGYPTPRVETSSTGNDGPALGAAYLLHQAMLAGNTRPHMRDVAVL

Source: the DeepSol protein solubility set
